Reference: US20240261333A1, “NOVEL TARGETS FOR ENHANCING ANTI-TUMOR IMMUNITY” (THE BROAD INSTITUTE, INC., priority 2021, published 2024)

T1: B3GNT2 (Homo sapiens, UniProt Q9NY97)
T1 construct: The respective ORFs of candidate genes [CD274 (NM_014143), MCL1 (NM_021960), JUNB (NM_002229), and B3GNT2 (NM_006577)] were synthesized; expressed in transfected cells; host or cells: A375 melanoma cells (lentiviral ORF overexpression)
T1 sequence (Q9NY97 1-397): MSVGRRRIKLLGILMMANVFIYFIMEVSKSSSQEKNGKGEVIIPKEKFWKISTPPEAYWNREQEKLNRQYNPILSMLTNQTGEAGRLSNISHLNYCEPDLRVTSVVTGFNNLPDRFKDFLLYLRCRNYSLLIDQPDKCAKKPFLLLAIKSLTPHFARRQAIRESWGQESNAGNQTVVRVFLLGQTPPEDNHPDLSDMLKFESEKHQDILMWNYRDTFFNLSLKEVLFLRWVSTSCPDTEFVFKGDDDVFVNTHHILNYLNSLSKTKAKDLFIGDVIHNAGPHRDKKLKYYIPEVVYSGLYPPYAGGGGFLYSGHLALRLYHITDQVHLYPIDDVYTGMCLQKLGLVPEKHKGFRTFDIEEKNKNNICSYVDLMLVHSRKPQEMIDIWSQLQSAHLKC

B1: TUBB6 (protein)
chain: MREIVHIQAGQCGNQIGTKFWEVISDEHGIDPAGGYVGDSALQLERINVYYNESSSQKYVPRAALVDLEPGTMDSVRSGPFGQLFRPDNFIFGQTGAGNNWAKGHYTEGAELVDAVLDVVRKECEHCDCLQGFQLTHSLGGGTGSGMGTLLISKIREEFPDRIMNTFSVMPSPKVSDTVVEPYNATLSVHQLVENTDETYCIDNEALYDICFRTLKLTTPTYGDLNHLVSATMSGVTTSLRFPGQLNADLRKLAVNMVPFPRLHFFMPGFAPLTSRGSQQYRALTVPELTQQMFDARNMMAACDPRHGRYLTVATVFRGPMSMKEVDEQMLAIQSKNSSYFVEWIPNNVKVAVCDIPPRGLKMASTFIGNSTAIQELFKRISEQFSAMFRRKAFLHWFTGEGMDEMEFTEAESNMNDLVSEYQQYQDATANDGEEAFEDEEEEIDG
B2: ZC3HAV1 (protein, UniProt Q7Z2W4 2-902, looked up)
Zinc finger CCCH-type …: ADPEVCCFITKILCAHGGRMALDALLQEIALSEPQLCEVLQVAGPDRFVVLETGGEAGITRSVVATTRARVCRRKYCQRPCDNLHLCKLNLLGRCNYSQSERNLCKYSHEVLSEENFKVLKNHELSGLNKEELAVLLLQSDPFFMPEICKSYKGEGRQQICNQQPPCSRLHICDHFTRGNCRFPNCLRSHNLMDRKVLAIMREHGLNPDVVQNIQDICNSKHMQKNPPGPRAPSSHRRNMAYRARSKSRDRFFQGSQEFLASASASAERSCTPSPDQISHRASLEDAPVDDLTRKFTYLGSQDRARPPSGSSKATDLGGTSQAGTSQRFLENGSQEDLLHGNPGSTYLASNSTSAPNWKSLTSWTNDQGARRKTVFSPTLPAARSSLGSLQTPEAVTTRKGTGLLSSDYRIINGKSGTQDIQPGPLFNNNADGVATDITSTRSLNYKSTSSGHREISSPRIQDAGPASRDVQATGRIADDADPRVALVNDSLSDVTSTTSSRVDDHDSEEICLDHLCKGCPLNGSCSKVHFHLPYRWQMLIGKTWTDFEHMETIEKGYCNPGIHLCSVGSYTINFRVMSCDSFPIRRLSTPSSVTKPANSVFTTKWIWYWKNESGTWIQYGEEKDKRKNSNVDSSYLESLYQSCPRGVVPFQAGSRNYELSFQGMIQTNIASKTQKDVIRRPTFVPQWYVQQMKRGPDHQPAKTSSVSLTATFRPQEDFCFLSSKKYKLSEIHHLHPEYVRVSEHFKASMKNFKIEKIKKIENSELLDKFTWKKSQMKEEGKLLFYATSRAYVESICSNNFDSFLHETHENKYGKGIYFAKDAIYSHKNCPYDAKNVVMFVAQVLVGKFTEGNITYTSPPPQFDSCVDTRSNPSVFVIFQKDQVYPQYVIEYTEDKACVIS
B3: ILF3 (protein)
chain: MRPMRIFVNDDRHVMAKHSSVYPTQEELEAVQNMVSHTERALKAVSDWIDEQEKGSSEQAESDNMDVPPEDDSKEGAGEQKTEHMTRTLRGVMRVGLVAKGLLLKGDLDLELVLLCKEKPTTALLDKVADNLAIQLAAVTEDKYEILQSVDDAAIVIKNTKEPPLSLTIHLTSPVVREEMEKVLAGETLSVNDPPDVLDRQKCLAALASLRHAKWFQARANGLKSCVIVIRVLRDLCTRVPTWGPLRGWPLELLCEKSIGTANRPMGAGEALRRVLECLASGIVMPDGSGIYDPCEKEATDAIGHLDRQQREDITQSAQHALRLAAFGQLHKVLGMDPLPSKMPKKPKNENPVDYTVQIPPSTTYAITPMKRPMEEDGEEKSPSKKKKKIQKKEEKAEPPQAMNALMRLNQLKPGLQYKLVSQTGPVHAPIFTMSVEVDGNSFEASGPSKKTAKLHVAVKVLQDMGLPTGAEGRDSSKGEDSAEETEAKPAVVAPAPVVEAVSTPSAAFPSDATAEQGPILTKHGKNPVMELNEKRRGLKYELISETGGSHDKRFVMEVEVDGQKFQGAGSNKKVAKAYAALAALEKLFPDTPLALDANKKKRAPVPVRGGPKFAAKPHNPGFGMGGPMHNEVPPPPNLRGRGRGGSIRGRGRGRGFGGANHGGYMNAGAGYGSYGYGGNSATAGYSQFYSNGGHSGNASGGGGGGGGGSSGYGSYYQGDNYNSPVPPKHAGKKQPHGGQQKPSYGSGYQSHQGQQQSYNQSPYSNYGPPQGKQKGYNHGQGSYSYSNSYNSPGGGGGSDYNYESKFNYSGSGGRSGGNSYGSGGASYNPGSHGGYGGGSGGGSSYQGKQGGYSQSNYNSPGSGQNYSGPPSSYQSSQGGYGRNADHSMNYQYR

The molecules below were run against T1, B3GNT2 (assay: Co-IP of FLAG-tagged B3GNT2 followed by mass spectrometry). Settings: Co-IP with FLAG antibody, C-terminally FLAG-tagged B3GNT2; mass spectrometry count, unit not given.
Assay type: cell-based
Design: C-term IgG / C-term flag: unit not given here
In short: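 Co-purifying proteins were identified by fractionated nano-LC–MS/MS on an Orbitrap Elite, run data-dependent. Beforehand, lysates in 1% Triton X-100/HEPES buffer were incubated overnight at 4° C with anti-FLAG or […] and pulled down on Protein A/G magnetic beads for 4 h. Duplicate biological replicates.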

Row | C-term flag | Molecule
1 | 42 | B1
2 | 4 | B2
3 | 5 | B3

Same assay, conditions: Co-IP with FLAG antibody, N-terminally FLAG-tagged B3GNT2; mass spectrometry count, unit not given

Row | N-term FLAG | Molecule
4 | 63 | B1
5 | 3 | B2
6 | 2 | B3

Same assay, conditions: Co-IP with IgG control antibody, C-terminally FLAG-tagged B3GNT2; mass spectrometry count, unit not given

Row | C-term IgG | Molecule
7 | 0 | B1
8 | 0 | B2
9 | 0 | B3

Same assay, conditions: Co-IP with IgG control antibody, N-terminally FLAG-tagged B3GNT2; mass spectrometry count, unit not given

Row | N-term IgG | Molecule
10 | 0 | B1
11 | 0 | B2
12 | 0 | B3
